The assay concerns the target γH2AX, P16104. The experiment in a line: proximity ligation assay (PLA). The conditions noted are these: chain shown with the change, U2OS cells transfected with GFP-RNF168 wildtype and mutants, antibodies against GFP and γH2AX, 75 (wildtype), parent: est. 43, read off a plot.

B1: GFP-RNF168 wildtype, Q8IYW5 R57D; E143del; E144del (protein)
chain: MALPKDAIPSLSECQCGICMEILVEPVTLPCNHTLCKPCFQSTVEKASLCCPFCRRDVSSWTRYHTRRNSLVNVELWTIIQKHYPRECKLRASGQESEEVADDYQPVRLLSKPGELRREYEEEISKVAAERRASEEEENKASYIQRLLAEEEEEEKRQAEKRRRAMEEQLKSDEELARKLSIDINNFCEGSISASPLNSRKSDPVTPKSEKKSKNKQRNTGDIQKYLTPKSQFGSASHSEAVQEVRKDSVSKDIDSSDRKSPTGQDTEIEDMPTLSPQISLGVGEQGADSSIESPMPWLCACGAEWYHEGNVKTRPSNHGKELCVLSHERPKTRVPYSKETAVMPCGRTESGCAPTSGVTQTNGNNTGETENEESCLLISKEISKRKNQESSFEAVKDPCFSAKRRKVSPESSPDQEETEINFTQKLIDLEHLLFERHKQEEQDRLLALQLQKEVDKEQMVPNRQKGSPDEYHLRATSSPPDKVLNGQRKNPKDGNFKRQTHTKHPTPERGSRDKNRQVSLKMQLKQSVNRRKMPNSTRDHCKVSKSAHSLQPSISQKSVFQMFQRCTK
As for B1, the response (n = 53 cells (R57D/Δ143-144)) was found to be 11.

B2: GFP-RNF168 wildtype, Q8IYW5 E143del; E144del (protein)
chain: MALPKDAIPSLSECQCGICMEILVEPVTLPCNHTLCKPCFQSTVEKASLCCPFCRRRVSSWTRYHTRRNSLVNVELWTIIQKHYPRECKLRASGQESEEVADDYQPVRLLSKPGELRREYEEEISKVAAERRASEEEENKASYIQRLLAEEEEEEKRQAEKRRRAMEEQLKSDEELARKLSIDINNFCEGSISASPLNSRKSDPVTPKSEKKSKNKQRNTGDIQKYLTPKSQFGSASHSEAVQEVRKDSVSKDIDSSDRKSPTGQDTEIEDMPTLSPQISLGVGEQGADSSIESPMPWLCACGAEWYHEGNVKTRPSNHGKELCVLSHERPKTRVPYSKETAVMPCGRTESGCAPTSGVTQTNGNNTGETENEESCLLISKEISKRKNQESSFEAVKDPCFSAKRRKVSPESSPDQEETEINFTQKLIDLEHLLFERHKQEEQDRLLALQLQKEVDKEQMVPNRQKGSPDEYHLRATSSPPDKVLNGQRKNPKDGNFKRQTHTKHPTPERGSRDKNRQVSLKMQLKQSVNRRKMPNSTRDHCKVSKSAHSLQPSISQKSVFQMFQRCTK
As for B2, the response (n = 74 cells (Δ143-144)) was found to be 34.

The values above are taken from PMC7235047.
